From PMC7054835, “MyD88 Death-Domain Oligomerization Determines Myddosome Architecture: Implications for Toll-like Receptor Signaling” (Structure(London, England:1993), 2020)

Molecular target: the molecule itself
Experiment: AUC; sedimentation velocity (30,000 rev/min) and sedimentation equilibrium (3200 and 4200 rev/min, 250 and 280 nm) of hMyD88^DD alone, 35 uM, 293 K, 20 mM Tris, 20 mM NaCl, pH 8.0, 5% glycerol

B1: human MyD88 death domain construct (N-terminal death and intermediate domains of hMyD88, 1-151) (domain or fragment, UniProt Q99836 1-151, looked up)
chain: MAAGGPGAGSAAPVSSTSSLPLAALNMRVRRRLSLFLNVRTQVAADWTALAEEMDFEYLEIRQLETQADPTGRLLDAWQGRPGASVGRLLELLTKLGRDDVLLELGPSIEEDCQKYILKQQQEEAEKPLQVAAVDSSVPRTAELAGITTLD
notes: Myeloid differentiation primary response 88 (MyD88), human, residues 1-151: death domain plus a 30-residue segment of the intermediate domain; printed monomer mass 17.5 kDa; Forms open-ended helical filaments of several hundred subunits at 35 uM and above; The model in the map holds 103 residues per subunit and ends at Q121; also called hMyD88^DD; MyD88^DD; source: E. coli BL21 DE3 Rosetta 2, …
binding result: binds
